The record followed here is patent US20040167074A1, “Therapeutic applications of mFLINT polypeptides” (priority 1998, published 2004).

Test [1] concerns the target Fas. As to the kind of experiment: ELISA: 100 ng Fas adsorbed, FasL 10 ng, anti-Flag M2 detection. On the technique in general: ELISA stands for enzyme-linked immunosorbent assay.
In test [2] the target is Fas. As to the kind of experiment: ELISA: 100 ng Fas adsorbed, FasL 50 ng, anti-Flag M2 detection.
In test [3] the target is Fas. As to the kind of experiment: ELISA: 100 ng Fas adsorbed, FasL 0.1 ng, anti-Flag M2 detection.
Test [4] concerns the target Fas. As to the kind of experiment: ELISA: 100 ng Fas adsorbed, FasL 0.5 ng, anti-Flag M2 detection.
Test [5] deals with Fas. As to the kind of experiment: ELISA: 100 ng Fas adsorbed, FasL 1.0 ng, anti-Flag M2 detection.
Test [6] has as its target Fas. Description: ELISA: 100 ng Fas adsorbed, FasL 100 ng, anti-Flag M2 detection.
Test [7] concerns the target Fas. As to the kind of experiment: ELISA: 100 ng Fas adsorbed, FasL 5.0 ng, anti-Flag M2 detection.
The target in test [8] is T1, mFLINT (mature human FLINT, non-Flagged, made according to Examples 8 and 9) (human) (UniProt O95407).
T1 sequence (chain, glycosylated (p-0200)): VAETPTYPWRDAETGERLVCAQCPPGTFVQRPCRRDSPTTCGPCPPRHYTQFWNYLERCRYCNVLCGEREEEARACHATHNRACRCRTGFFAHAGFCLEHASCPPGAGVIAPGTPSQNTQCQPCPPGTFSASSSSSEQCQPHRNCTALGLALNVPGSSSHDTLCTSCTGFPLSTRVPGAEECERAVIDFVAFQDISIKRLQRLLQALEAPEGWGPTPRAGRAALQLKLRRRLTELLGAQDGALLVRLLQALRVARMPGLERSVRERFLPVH
Description: ELISA: 100 ng FLINT adsorbed, FasL 10 ng, anti-Flag M2 detection.

Test [9] deals with T1, mFLINT (mature human FLINT, non-Flagged, made according to Examples 8 and 9) (human). Description: ELISA: 100 ng FLINT adsorbed, FasL 50 ng, anti-Flag M2 detection.
In test [10] the target is mrecFas. Description: ELISA: 100 ng mrecFas adsorbed, FasL 1 ng, anti-Flag M2 detection.
Test [11] concerns the target mrecFas. Description: ELISA: 100 ng mrecFas adsorbed, FasL 5 ng, anti-Flag M2 detection.
Test [12] concerns the target T1, mFLINT (mature human FLINT, non-Flagged, made according to Examples 8 and 9) (human). Description: ELISA: 100 ng FLINT adsorbed, FasL 0.1 ng, anti-Flag M2 detection.
The target is the same in test [13]. As to the kind of experiment: ELISA: 100 ng FLINT adsorbed, FasL 0.5 ng, anti-Flag M2 detection.
Test [14] has the same target. As to the kind of experiment: ELISA: 100 ng FLINT adsorbed, FasL 1.0 ng, anti-Flag M2 detection.
For test [15] the target is unchanged. As to the kind of experiment: ELISA: 100 ng FLINT adsorbed, FasL 100 ng, anti-Flag M2 detection.
The target is the same in test [16]. As to the kind of experiment: ELISA: 100 ng FLINT adsorbed, FasL 5.0 ng, anti-Flag M2 detection.
Test [17] has as its target mrecFas. As to the kind of experiment: ELISA: 100 ng mrecFas adsorbed, FasL 10 ng, anti-Flag M2 detection.
In test [18] the target is mrecFas. As to the kind of experiment: ELISA: 100 ng mrecFas adsorbed, FasL 50 ng, anti-Flag M2 detection.
In test [19] the target is mrecFas. As to the kind of experiment: ELISA: 100 ng mrecFas adsorbed, FasL 100 ng, anti-Flag M2 detection.
Test [20] addresses mrecFas. Description: ELISA: 100 ng mrecFas adsorbed, FasL 500 ng, anti-Flag M2 detection.

Sequence of Fas (P25445 whole entry): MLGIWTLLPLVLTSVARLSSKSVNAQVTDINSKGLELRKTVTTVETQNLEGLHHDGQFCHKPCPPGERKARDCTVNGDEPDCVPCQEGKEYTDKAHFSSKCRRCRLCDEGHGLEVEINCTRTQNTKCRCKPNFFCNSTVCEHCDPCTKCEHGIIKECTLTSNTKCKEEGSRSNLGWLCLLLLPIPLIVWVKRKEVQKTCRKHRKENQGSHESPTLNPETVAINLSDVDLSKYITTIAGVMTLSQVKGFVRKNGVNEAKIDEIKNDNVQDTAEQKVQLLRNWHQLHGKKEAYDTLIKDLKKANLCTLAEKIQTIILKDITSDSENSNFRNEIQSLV
Sequence of hFasLigand (Flag-tagged) (P48023 103-281 limits assumed): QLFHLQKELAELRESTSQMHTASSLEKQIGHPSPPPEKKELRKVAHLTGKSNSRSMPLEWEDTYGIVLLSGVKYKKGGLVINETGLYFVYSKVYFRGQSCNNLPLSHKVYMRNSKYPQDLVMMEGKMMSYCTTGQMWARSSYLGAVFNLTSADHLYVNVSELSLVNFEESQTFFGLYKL

As for “hFasLigand (Flag-tagged) (from UniProt P48023)”, the Fas OD, 405 nM was 0.03 OD, 405 nM with Fas [1]; 0.045 OD, 405 nM in the test with Fas [2]; 0 OD, 405 nM in the test with Fas [3]; 0 OD, 405 nM with Fas [4]; 0 OD, 405 nM with Fas [5]; 0.18 OD, 405 nM in the test with Fas [6]. Moreover, in the test with Fas [7], the Fas OD, 405 nM is 0.01 OD, 405 nM. Also, the FLINT OD was 0.12 OD, 405 nM in test [8]; 0.28 OD, 405 nM in test [9]; 0 OD, 405 nM in [12]; 0 OD, 405 nM in test [13]; 0.02 OD, 405 nM in test [14]; 0.78 OD, 405 nM in test [15]. In test [16], the FLINT OD was 0.04 OD, 405 nM. Also, the OD, 405 nM is 0.1 OD, 405 nM with mrecFas [10]; 0.2 OD, 405 nM in the test with mrecFas [11]; 0.3 OD, 405 nM with mrecFas [17]; 0.7 OD, 405 nM with mrecFas [18]; 1.2 OD, 405 nM with mrecFas [19]; 1.6 OD, 405 nM in the test with mrecFas [20].
